Laboratory results as given in the Human Domainome abundance scans (Beltran et al. 2025).
± gives the uncertainty stated by the source.

B1: Kinesin-like protein KIF16B, residues 1213 to 1273; numbered along this chain, Q96L93 (parent)
chain: ETWTVFRRYSRFREMHKTLKLKYAELAALEFPPKKLFGNKDERVIAERRSHLEKYLRDFFS

Variants of: B1
Experiment: abundance fitness (aPCA) (normalised: wild type 0, dead -1); higher = more abundant; growth selection in yeast, the domain comes from the species named
Settings: Homo sapiens

| Variant | abundance fitness |
| --- | --- |
| ETWTVFRRYSRFREMHKTLKLKPAELAALEFPPKKLFGNKDERVIAERRSHLEKYLRDFFS | -1.06 ± 0.28 |
| ETWTVFRRYSRFREMHKTLKLKLAELAALEFPPKKLFGNKDERVIAERRSHLEKYLRDFFS | 0.279 ± 0.069 |
| ETWTVFRRYSRFREMHKTLKLKRAELAALEFPPKKLFGNKDERVIAERRSHLEKYLRDFFS | -0.726 ± 0.094 |
| ETWTVFRRYSRFREMHKTLKLKAAELAALEFPPKKLFGNKDERVIAERRSHLEKYLRDFFS | 0.068 ± 0.076 |
| ETWTVFRRYSRFREMHKTLKLKSAELAALEFPPKKLFGNKDERVIAERRSHLEKYLRDFFS | -0.528 ± 0.15 |
| ETWTVFRRYSRFREMHKTLKLKMAELAALEFPPKKLFGNKDERVIAERRSHLEKYLRDFFS | 0.051 ± 0.14 |
| ETWTVFRRYSRFREMHKTLKLKKAELAALEFPPKKLFGNKDERVIAERRSHLEKYLRDFFS | -0.803 ± 0.28 |
| ETWTVFRRYSRFREMHKTLKLKIAELAALEFPPKKLFGNKDERVIAERRSHLEKYLRDFFS | -0.034 ± 0.16 |
| ETWTVFRRYSRFREMHKTLKLKEAELAALEFPPKKLFGNKDERVIAERRSHLEKYLRDFFS | -0.897 ± 0.14 |
| ETWTVFRRYSRFREMHKTLKLKHAELAALEFPPKKLFGNKDERVIAERRSHLEKYLRDFFS | -0.128 ± 0.26 |
| ETWTVFRRYSRFREMHKTLKLKFAELAALEFPPKKLFGNKDERVIAERRSHLEKYLRDFFS | 0.296 ± 0.13 |
| ETWTVFRRYSRFREMHKTLKLKGAELAALEFPPKKLFGNKDERVIAERRSHLEKYLRDFFS | -0.42 ± 0.086 |
| ETWTVFRRYSRFREMHKTLKTKYAELAALEFPPKKLFGNKDERVIAERRSHLEKYLRDFFS | -0.079 ± 0.13 |
| ETWTVFRRYSRFREMHKTLKYKYAELAALEFPPKKLFGNKDERVIAERRSHLEKYLRDFFS | -0.477 ± 0.18 |
| ETWTVFRRYSRFREMHKTLKKKYAELAALEFPPKKLFGNKDERVIAERRSHLEKYLRDFFS | 0.339 ± 0.077 |
| ETWTVFRRYSRFREMHKTLKEKYAELAALEFPPKKLFGNKDERVIAERRSHLEKYLRDFFS | 0.352 ± 0.062 |
| ETWTVFRRYSRFREMHKTLKCKYAELAALEFPPKKLFGNKDERVIAERRSHLEKYLRDFFS | -0.131 ± 0.077 |
| ETWTVFRRYSRFREMHKTLKQKYAELAALEFPPKKLFGNKDERVIAERRSHLEKYLRDFFS | 0.159 ± 0.16 |
| ETWTVFRRYSRFREMHKTLKRKYAELAALEFPPKKLFGNKDERVIAERRSHLEKYLRDFFS | 0.163 ± 0.056 |
| ETWTVFRRYSRFREMHKTLKMKYAELAALEFPPKKLFGNKDERVIAERRSHLEKYLRDFFS | 0.147 ± 0.096 |
| ETWTVFRRYSRFREMHKTLKHKYAELAALEFPPKKLFGNKDERVIAERRSHLEKYLRDFFS | 0.112 ± 0.094 |
| ETWTVFRRYSRFREMHKTLKIKYAELAALEFPPKKLFGNKDERVIAERRSHLEKYLRDFFS | -0.379 ± 0.27 |

| Variant | abundance fitness |
| --- | --- |
| ETWTVFRRYSRFREMHKTLKGKYAELAALEFPPKKLFGNKDERVIAERRSHLEKYLRDFFS | -0.028 ± 0.031 |
| ETWTVFRRYSRFREMHKTLKNKYAELAALEFPPKKLFGNKDERVIAERRSHLEKYLRDFFS | -0.289 ± 0.25 |
| ETWTVFRRYSRFREMHKTLKDKYAELAALEFPPKKLFGNKDERVIAERRSHLEKYLRDFFS | 0.101 ± 0.11 |
| ETWTVFRRYSRFREMHKTLKAKYAELAALEFPPKKLFGNKDERVIAERRSHLEKYLRDFFS | 0.356 ± 0.075 |
| ETWTVFRRYSRFREMHKTLKFKYAELAALEFPPKKLFGNKDERVIAERRSHLEKYLRDFFS | -0.559 ± 0.19 |
| ETWTVFRRYSRFREMHKTLKVKYAELAALEFPPKKLFGNKDERVIAERRSHLEKYLRDFFS | 0.114 ± 0.054 |
| ETWTVFRRYSRFREMHKTLKSKYAELAALEFPPKKLFGNKDERVIAERRSHLEKYLRDFFS | 0.254 ± 0.06 |
| ETWTVFRRYSRFREMHKTRKLKYAELAALEFPPKKLFGNKDERVIAERRSHLEKYLRDFFS | -1.07 ± 0.13 |
| ETWTVFRRYSRFREMHKTSKLKYAELAALEFPPKKLFGNKDERVIAERRSHLEKYLRDFFS | -1.11 ± 0.19 |
| ETWTVFRRYSRFREMHKTNKLKYAELAALEFPPKKLFGNKDERVIAERRSHLEKYLRDFFS | -0.658 ± 0.36 |
| ETWTVFRRYSRFREMHKTDKLKYAELAALEFPPKKLFGNKDERVIAERRSHLEKYLRDFFS | -1.13 ± 0.34 |
| ETWTVFRRYSRFREMHKTFKLKYAELAALEFPPKKLFGNKDERVIAERRSHLEKYLRDFFS | -0.146 ± 0.11 |
| ETWTVFRRYSRFREMHKTTKLKYAELAALEFPPKKLFGNKDERVIAERRSHLEKYLRDFFS | -0.844 ± 0.19 |
| ETWTVFRRYSRFREMHKTMKLKYAELAALEFPPKKLFGNKDERVIAERRSHLEKYLRDFFS | 0.144 ± 0.095 |
| ETWTVFRRYSRFREMHKTEKLKYAELAALEFPPKKLFGNKDERVIAERRSHLEKYLRDFFS | -0.917 ± 0.23 |
| ETWTVFRRYSRFREMHKTGKLKYAELAALEFPPKKLFGNKDERVIAERRSHLEKYLRDFFS | -0.977 ± 0.14 |
| ETWTVFRRYSRFREMHKTCKLKYAELAALEFPPKKLFGNKDERVIAERRSHLEKYLRDFFS | -0.603 ± 0.22 |
| ETWTVFRRYSRFREMHKTVKLKYAELAALEFPPKKLFGNKDERVIAERRSHLEKYLRDFFS | -0.656 ± 0.1 |
| ETWTVFRRYSRFREMHKTKKLKYAELAALEFPPKKLFGNKDERVIAERRSHLEKYLRDFFS | -0.999 ± 0.16 |
| ETWTVFRRYSRFREMHKTAKLKYAELAALEFPPKKLFGNKDERVIAERRSHLEKYLRDFFS | -0.737 ± 0.29 |
| ETWTVFRRYSRFREMHKTPKLKYAELAALEFPPKKLFGNKDERVIAERRSHLEKYLRDFFS | -1.02 ± 0.24 |
| ETWTVFRRYSRFREMHKTQKLKYAELAALEFPPKKLFGNKDERVIAERRSHLEKYLRDFFS | -0.991 ± 0.24 |
